Test results: article PMC11774494

Target: 17b (CD4-induced human monoclonal antibody)
Assay: flow cytometry of transfected 293T cells: staining with 10 μg/ml 17b with or without sCD4-183, detection with APC anti-human IgG F(ab')2, arithmetic mean APC fluorescence of live (propidium iodide negative) single cells; 'All titrations …
Settings: sCD4-183 at 0, 0.078125, 0.3125, 1.25, 5, 20, 80 μM (row value in value_extra.sCD4_183_uM), 20 min staining at room temperature, CAUTION: 17b staining of cell-surface trimers with sCD4, mostly reports trimer opening, normalized per Env, one titration each. Higher = more 17b staining of cell-surface Env. 17b's epitope is exposed, numbering: unknown, sequence starts at 1
[1] = AUC over sCD4-183 0-80 μM, parent: 0.907, scale: area under the normalized MFI curve, log10 x-axis
[2] = sCD4-183 0 μM, parent: 0.0187, scale: normalized MFI
[3] = sCD4-183 0.078125 μM, parent: 0.0465, scale: normalized MFI
[4] = sCD4-183 0.3125 μM, parent: 0.0578, scale: normalized MFI
[5] = sCD4-183 1.25 μM, parent: 0.0973, scale: normalized MFI
[6] = sCD4-183 5 μM, parent: 0.198, scale: normalized MFI
[7] = sCD4-183 20 μM, parent: 0.585, scale: normalized MFI
[8] = sCD4-183 80 μM, parent: 1, scale: normalized MFI

Substance | screen value [1] | screen value [2] | screen value [3] | screen value [4] | screen value [5] | screen value [6] | screen value [7] | screen value [8]
HIV-1 JR-CSF envelope glycoprotein gp160 (Env), P20871 JR-CSF_T303I | 1.66 | 0.0358 | 0.0925 | 0.153 | 0.308 | 0.682 | 0.979 | 1
HIV-1 JR-CSF envelope glycoprotein gp160 (Env), P20871 JR-CSF_Y318A | 2.53 | 0.234 | 0.39 | 0.538 | 0.703 | 0.901 | 0.923 | 1
HIV-1 JR-CSF envelope glycoprotein gp160 (Env), P20871 JR-CSF_N156A | 2.72 | 0.272 | 0.437 | 0.595 | 0.796 | 0.913 | 1 | 0.984
HIV-1 JR-CSF envelope glycoprotein gp160 (Env), P20871 JR-CSF_S199A | 2.18 | 0.0532 | 0.183 | 0.348 | 0.593 | 0.931 | 0.997 | 1
HIV-1 JR-CSF envelope glycoprotein gp160 (Env), P20871 JR-CSF_T303A | 2.51 | 0.128 | 0.303 | 0.493 | 0.793 | 0.976 | 1 | 0.93
HIV-1 JR-CSF envelope glycoprotein gp160 (Env), P20871 JR-CSF_K305A | 2.6 | 0.182 | 0.383 | 0.554 | 0.754 | 0.935 | 1 | 0.978
HIV-1 JR-CSF envelope glycoprotein gp160 (Env), P20871 JR-CSF_I307A | 3.25 | 0.46 | 0.691 | 0.871 | 0.946 | 0.908 | 1 | 0.979
HIV-1 JR-CSF envelope glycoprotein gp160 (Env), P20871 JR-CSF_N301A | 2.59 | 0.178 | 0.314 | 0.564 | 0.801 | 0.974 | 0.958 | 1
HIV-1 JR-CSF envelope glycoprotein gp160 (Env), P20871 JR-CSF_H308A | 0.82 | 0.0195 | 0.0512 | 0.0642 | 0.0948 | 0.178 | 0.449 | 1
HIV-1 JR-CSF envelope glycoprotein gp160 (Env), P20871 JR-CSF_V127A | 2.51 | 0.217 | 0.347 | 0.491 | 0.715 | 0.915 | 1 | 0.951
HIV-1 JR-CSF envelope glycoprotein gp160 (Env), P20871 JR-CSF_N332A | 1.33 | 0.0498 | 0.0842 | 0.124 | 0.2 | 0.456 | 0.802 | 1
HIV-1 JR-CSF envelope glycoprotein gp160 (Env), P20871 JR-CSF_T320A | 2.47 | 0.13 | 0.297 | 0.477 | 0.754 | 0.942 | 1 | 0.974
HIV-1 JR-CSF envelope glycoprotein gp160 (Env), P20871 JR-CSF_Y384A | – | 0.03 | 0.141 | 0.264 | 0.357 | 0.491 | 0.712 | 1
HIV-1 JR-CSF envelope glycoprotein gp160 (Env), P20871 JR-CSF_Y173A | 1.72 | 0.137 | 0.199 | 0.265 | 0.357 | 0.533 | 0.862 | 1
HIV-1 JR-CSF envelope glycoprotein gp160 (Env), P20871 JR-CSF_W112A | 1.64 | 0.00342 | 0.153 | 0.255 | 0.378 | 0.566 | 0.852 | 1
